Test results as given in US20230088052A1 (JIANGSU HENGRUI PHARMACEUTICALS, published 2023).
Read-outs that look alike come from different tables or passages of the source.

B1: murine monoclonal antibody 25G7 (antibody, V domains shown)
VH: EVQLVESGGGLVKPGGSLKLSCAASGFTFSDYGMHWVRQAPEKGLEWVAFISSGSSIIYYADIVKGRSTISRDNAKNTLFLQMTSLRSEDTAMYYCTRGNKRGFFDYWGQGTILTVSS
VL: QIVLTQSPALMSASPGEKVTMTCNASSSVSYMYWYQRKPRSSPKPWIYLTSNLASGVPVRFSGSGSGTSYSLTISSMEAEDAATYYCQQWRSNPPMLTFGSGTKLEVK
notes: also called hybridoma 25G7
B2: hu25G7-A antibody (antibody, human IgG4 S228P, kappa, V domains shown)
VH: EVQLVESGGGLVQPGGSLRLSCAASGFTFSDYGMHWVRQAPGKGLEWVAFISSGSSIIYYADIVKGRSTISRDNAKNTLYLQMNSLRAEDTAVYYCTRGNKRGFFDYWGQGTLVTVSS
VL: EIVLTQSPATLSLSPGERATLSCRASSSVPYMYWYQQKPGQAPRLLIYLTSNLASGIPARFSGSGSGTDFTLTISSLEPEDFAVYYCQQWRAYPPMLTFGGGTKVEIKR
B3: human-murine chimeric antibody 25G7-C (antibody, V domains shown)
VH: EVQLVESGGGLVKPGGSLKLSCAASGFTFSDYGMHWVRQAPEKGLEWVAFISSGSSIIYYADIVKGRSTISRDNAKNTLFLQMTSLRSEDTAMYYCTRGNKRGFFDYWGQGTILTVSS
VL: QIVLTQSPALMSASPGEKVTMTCNASSSVSYMYWYQRKPRSSPKPWIYLTSNLASGVPVRFSGSGSGTSYSLTISSMEAEDAATYYCQQWRSNPPMLTFGSGTKLEVK
notes: Expressed in HEK293 cells
B4: humanized antibody hu25G7 (antibody, human IgG4 S228P, kappa, V domains shown)
VH: EVQLVESGGGLVQPGGSLRLSCAASGFTFSDYGMHWVRQAPGKGLEWVAFISSGSSIIYYADIVKGRSTISRDNAKNSLYLQMNSLRAEDTAVYYCTRGNKRGFFDYWGQGTLVTVSS
VL: EIVLTQSPATLSLSPGERATLSCNASSSVSYMYWYQQKPGQAPRLLIYLTSNLASGIPARFSGSGSGTDFTLTISSLEPEDFAVYYCQQWRSNPPMLTFGGGTKVEIKR
notes: Uses the VH-c heavy chain and the VL-a light chain; also called wild-type hu25G7
B5: hu25G7-B antibody (antibody, human IgG4 S228P, kappa, V domains shown)
VH: EVQLVESGGGLVQPGGSLRLSCAASGFTFSDYGMHWVRQAPGKGLEWVAFISSGSSIIYYADIVKGRSTISRDNAKNTLYLQMNSLRAEDTAVYYCTRGNKRGFFDYWGQGTLVTVSS
VL: EIVLTQSPATLSLSPGERATLSCRASPGVPPLAWYQQKPGQAPRLLIYLASSRPSGIPARFSGSGSGTDFTLTISSLEPEDFAVYYCQQWRSNPPMLTFGGGTKVEIKR
B6: Dupilumab (antibody, V domains shown)
VH: EVQLVESGGGLEQPGGSLRLSCAGSGFTFRDYAMTWVRQAPGKGLEWVSSISGSGGNTYYADSVKGRFTISRDNSKNTLYLQMNSLRAEDTAVYYCAKDRLSITIRPRYYGLDVWGQGTTVTVSS
VL: DIVMTQSPLSLPVTPGEPASISCRSSQSLLYSIGYNYLDWYLQKSGQSPQLLIYLGSNRASGVPDRFSGSGSGTDFTLKISRVEAEDVGFYYCMQALQTPYTFGQGTKLEIKR
B7: humanized antibody hu7B10 (antibody, human IgG1, kappa, V domains shown)
VH: EVQLVQSGAEVKKPGASVKVSCKASGYTFTSYWMHWVRQAPGQGLEWMGLIHPNSDTTKFSENFKTRVTMTIDTSISTAYMELSRLRSDDTAVYYCAKSKIITTIVARHWYFDVWGQGTTVTVSS
VL: DIVLTQTPLSLSVTPGQPASISCKASQSVDYGGDSYMNWYLQKPGQPPQLLIYAASNLESGVPDRFSGSGSGTDFTLKISRVEAEDVGVYYCQHSNENPPTFGGGTKVEIKR
notes: Uses the VH-b heavy chain and the VL-b light chain
B8: human-murine chimeric antibody 7B10-C (antibody, V domains shown)
VH: QVQLQQPGTELLKPGASVSLSCKASGYTFTSYWMHWVKQRPGQGLEWIGLIHPNSDTTKFSENFKTRATLTIDKSSSTAYMKLSSLTSEDSAVYYCAKSKIITTIVARHWYFDVWGTGTTVTVSS
VL: DIVLTQSPPSLAVSLGQRATISCKASQSVDYGGDSYMNWYQQKLGQPPKVLIYAASNLESGIPARFSGSGSGTDFTLNIHPVEEEDVATYYCQHSNENPPTFGGGTKLEIK
notes: Expressed in HEK293 cells

Columns and labels:
[1] = target: T1, his-tagged mouse IL-4R recombinant protein (m-IL-4R-his) (mouse, UniProt P16382 26-233); assay: ELISA, IL-4R-his coated on the plate
T1 construct: range 26-233; also called Murine IL-4R-his; not shown: his tag
T1 sequence (looked up): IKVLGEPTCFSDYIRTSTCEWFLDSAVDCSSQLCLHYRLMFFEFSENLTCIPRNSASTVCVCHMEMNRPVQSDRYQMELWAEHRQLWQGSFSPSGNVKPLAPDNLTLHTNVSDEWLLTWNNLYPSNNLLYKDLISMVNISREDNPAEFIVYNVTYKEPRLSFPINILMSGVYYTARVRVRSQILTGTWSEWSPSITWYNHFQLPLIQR

[2] = target: T2, humanized Fc-tagged human IL-4R recombinant protein (h-IL-4R-Fc) (human, UniProt P24394 26-232); assay: blocking ELISA: human IL-4R-Fc coated, antibody blocks the binding of IL-4
T2 construct: range 1-232; The printed range starts at Met1, so it includes the signal peptide of the construct; also called Human IL-4R-Fc; not shown: Fc tag
Description: (§1) Human IL-4R-Fc protein was coated on a 96-well microplate, 100 μL per well at a concentration of 0.5 μg/mL, and incubated overnight at 4° C. The plate was washed three times with washing buffer at 250 μL per well. A blocking solution was added at 200 μL per well and the plate was incubated at room temperature for 2 h. The plate was washed three times with washing buffer at 250 μL per well. Anti-IL-4R antibody to be tested diluted in diluent was added at 100 μL per well, and the plate was incubated at room temperature for 1 h. The plate was washed three times with washing buffer at 250 μL per well. […] HRP-labeled Neutravidin diluted in a diluent at 1:5000 was added, and the plate was incubated at room temperature for 1 h. The plate was washed three times with washing buffer at 250 μL per well. TMB was added at 100 μL per well, and the mixture was reacted for 15 min in the dark. 0.16 M/L sulfuric acid was added at 50 μL per well.

[3] = target: T3, his-tagged human IL-4R recombinant protein (h-IL-4R-his) (human, UniProt P24394 26-232); assay: binding ELISA, human IL-4R-his coated
T3 construct: range 26-232; Made by Acrobiosystems in HEK293; also called Human IL-4R-his; not shown: his tag
Description: ELISA experiment was used to detect binding properties of anti-IL-4R antibodies. A microplate was coated with his-tagged IL-4R recombinant protein. After the antibody was added to each well, the activity of the binding of the antibody to the antigen was detected by adding a secondary antibody (HRP-conjugated anti-primary antibody Fc antibody) and HRP substrate TMB.
Human or rhesus IL-4R-his protein was coated on a 96-well microplate, 100 μL per well at a concentration of 0.5 μg/mL, and incubated overnight at 4° C. The plate was washed three times with washing buffer at 250 μL per well. A blocking solution was added at 200 μL per well and the plate was incubated at room temperature for 2 h. The plate was washed three times with washing buffer at 250 μL per well. Anti-IL-4R antibody to be tested diluted in diluent was added at 100 μL per well. The plate was incubated at room temperature for 1 h. The plate was washed three times with washing buffer at 250 μL per well. HRP-labeled goat anti-human IgG secondary antibody diluted at 1:20000 with diluent was added at 100 μL per well. The plate was incubated at room temperature for 1 h. The plate was washed three times with washing buffer at 250 μL per well. TMB was added at 100 μL per well, and the mixture was reacted for 15 min in the dark. 0.16 M/L sulfuric acid was added at 50 μL per well. The OD value was read at 450 nm by a Thermo MultiSkanFc microplate reader and the binding EC₅₀ value of the anti-IL-4R antibody to IL-4R was calculated.

[4] = target: T4, human IL-4R on cells (HEK-Blue IL-4 cells, TF-1 cells) (human, UniProt P24394 26-825); assay: cell-based or functional assay
[5] = target: T2, humanized Fc-tagged human IL-4R …; assay: blocking ELISA of human IL-4/IL-4R
Description: as §1

[6] = target: T4, human IL-4R on cells (HEK-Blue IL-4 …); assay: cell-based or functional assay; remark: listed apart in the source
[7] = target: T4, human IL-4R on cells (HEK-Blue IL-4 …); assay: cell-based or functional assay; remark: listed apart in the source
[8] = target: T3, his-tagged human IL-4R recombinant …; assay: Biacore SPR: antibody captured, IL-4R antigen in flow, 1:1 model
Excerpt: Human antibody capture antibody was covalently coupled to a biosensor chip CMS of Biacore instrument (Biacore X100, GE) according to the method described in the instruction of human antibody capture kit (Cat #BR-1008-39, GE), and thus a certain amount of antibodies to be tested were captured based on affinity. Then a series of concentration gradients of IL-4R antigens (the IL-4R antigens all purchased from Acrobiosystems, Cat #ILR-H5221) flowed through the surface of chip, and the Biacore instrument (Biacore X100, GE) was used to detect the reaction signals in real time to obtain the binding and dissociation curves. After each cycle of dissociation was completed, the biochip was washed and regenerated with a regeneration solution prepared in the human antibody capture kit. The amino coupling kit used in the experiment was purchased from GE corporation (Cat #BR-1000-50, GE), and the buffer was HBS-EP+ 10× buffer solution (Cat #BR-1006-69, GE) diluted to 1× (pH 7.4) with D.I. Water.
The data obtained from the experiment were fitted with BiacoreX100 evaluation software 2.0 GE software with a (1:1) binding model to obtain affinity values.

[9] = target: T4, human IL-4R on cells (HEK-Blue IL-4 …); assay: cell-based or functional assay; remark: listed apart in the source

Row | Binder | binding result [1] | IC50 [2] [µg/mL] | EC50 [3] [µg/mL] | IC50 for blocking binding of HEK293-Blue IL-4 cells (to IL-4) [4] [µg/mL] | IC50 for inhibiting IL-4-related proliferation of TF-1 cells [4] [µg/mL] | IC50 [5] [µg/mL] | Blocking binding of HEK293-Blue cells (to IL-4) (IC50) [6] [µg/mL] | Blocking binding of HEK293-Blue cells (to IL-13) (IC50) [6] [µg/mL] | Inhibiting IL-4-related proliferation of TF-1 cells (IC50) [6] [µg/mL] | Inhibiting IL-13-related proliferation of TF-1 cells (IC50) [6] [µg/mL] | Blocking binding of HEK293-Blue IL-4 cells (to IL-4) (IC50) [7] [µg/mL] | Inhibiting IL-4-related proliferation of TF-1 cells (IC50) [7] [µg/mL] | Kd [8] [nM] | Blocking binding of HEK293-Blue IL-4 cells (to IL-4) (IC50) [9] [µg/mL] | Inhibiting IL-4-related proliferation of TF-1 cells (IC50) [9] [µg/mL]
1 | B1 | no binding | 0.00813 | 0.00332 | 0.000975 | 0.0513 | – | – | – | – | – | – | – | – | – | –
2 | B2 | – | – | – | – | – | 0.144 | 0.00649 | 0.01 | 0.0837 | 0.0132 | – | – | – | – | –
3 | B3 | – | 0.0397 | 0.00909 | – | – | – | – | – | – | – | 0.00202 | 0.0203 | 0.725 | – | –
4 | B4 | – | 0.0236 | 0.00341 | – | – | – | – | – | – | – | – | – | 1.07 | 0.000943 | 0.0296
5 | B5 | – | – | – | – | – | 0.108 | 0.0066 | 0.00838 | 0.051 | 0.0137 | – | – | – | – | –
6 | B6 | – | – | – | 0.00507 | 0.102 | – | 0.0125 | 0.0148 | 0.101 | 0.0181 | 0.00324 | 0.207 | – | 0.000667 | 0.491
7 | B7 | – | 0.0753 | 0.012 | – | – | – | – | – | – | – | – | – | 0.284 | 0.00687 | 0.112
8 | B8 | – | 0.162 | 0.0118 | – | – | – | – | – | – | – | 0.00903 | 0.0464 | 0.278 | – | –
